One series deals with alpha-1 anti-trypsin. The conditions noted are these: cited from earlier work; for augmenting blood and lung alpha-1 anti-trypsin levels compared with Prolastin / safety compared with Prolastin: basis of approval.
Series [1] concerns mutant SOD mice (SOD1G93A). As to the kind of experiment: Ursolic acid treatment of ALS mouse model (grip test, rotarod). The series is classed as in vivo. The conditions noted are these: ursolic acid 200 mg/kg daily over eight weeks. The procedure: In ALS mouse models, like mutant SOD mice (SOD1G93A)), ALS is diagnosed based on hanging wire grip test (where the latency of falling is measured in seconds), grip strength analysis, rotarod time trial test, where a decrease in time balanced on the rod correlates to disease positive mice. Weight is measured to determine hypotrophy of muscle mass over time. Low levels of serum serpinA1 proteins levels, serum protease inhibitor function, serum trypsin protein levels, and serum functional trypsin level correlates with ALS. Once the mice have been diagnosed with ALS, the mice are given daily treatments of ursolic acid (200 mg/kg) over the course of eight weeks. Levels of serum serpinA1 proteins, serum protease inhibitor function, serum trypsin protein, and serum functional trypsin are assessed over time monitoring for an increases. Grip test and rotarod times are assessed over time as a correlation for delay in disease progression.
In general terms: In the rotarod test animals must keep their balance on a rotating rod.

Series [2] deals with T1, alpha1-protease inhibitor (Homo sapiens, UniProt P01009).
T1 construct: a human protein has been isolated from pooled human serum samples and lyophilized; tissue Baxter / Takeda (Aralast NP); host or cells: pooled human serum / plasma
The settings on record: cited from earlier work.

The values below come from patent US20230218637A1, “COMPOSITIONS AND METHODS FOR DIAGNOSING, PREVENTING, AND TREATING AMYOTROPHIC LATERAL SCLEROSIS IN PATIENTS WITH HYPOFUNCTIONAL ANTI-TRYPSIN ACTIVITY” (Motor Life Sciences, LLC, priority 2020, published 2023).

T1 sequence (P01009 25-418): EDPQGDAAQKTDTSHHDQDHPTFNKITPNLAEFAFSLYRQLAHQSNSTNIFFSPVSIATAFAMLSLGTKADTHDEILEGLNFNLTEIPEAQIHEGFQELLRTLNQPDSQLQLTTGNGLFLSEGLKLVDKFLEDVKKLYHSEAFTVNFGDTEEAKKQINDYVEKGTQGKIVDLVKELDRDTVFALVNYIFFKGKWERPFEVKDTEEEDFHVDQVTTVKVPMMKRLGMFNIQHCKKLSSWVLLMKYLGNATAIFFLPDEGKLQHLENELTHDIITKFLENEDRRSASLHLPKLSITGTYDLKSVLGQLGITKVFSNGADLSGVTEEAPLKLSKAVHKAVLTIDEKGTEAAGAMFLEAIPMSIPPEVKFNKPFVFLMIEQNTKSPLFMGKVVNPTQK

In the case of “Prolastin: alpha-1 antitrypsin augmentation therapy product from Grifols, marketed since 1988”, the safety record entry in the series with alpha-1 anti-trypsin (marketed since 1988) is “excellent safety record”.

Take “Glassia: FDA approved alpha-1 antitrypsin deficiency drug from Kamada Ltd.”: in the series with alpha-1 anti-trypsin, the “augmenting blood and lung alpha-1 anti-trypsin levels compared with Prolastin” value is “comparable to Prolastin”; the “safety compared with Prolastin” value was “comparable to Prolastin”.

`C[C@H]1[C@H](C)CC[C@]2(C(=O)O)CC[C@]3(C)C(=CC[C@@H]4[C@@]5(C)CC[C@H](O)C(C)(C)[C@@H]5CC[C@]43C)[C@H]12` [ursolic acid]: the “performance (grip test, rotarod) versus non-treatment group” value in series [1] was “outperform the non-treatment group”. As for “Zemaira: FDA approved alpha-1 antitrypsin deficiency drug from CSL Behring”, in the series on alpha-1 anti-trypsin, the “augmenting blood and lung alpha-1 anti-trypsin levels compared with Prolastin” value is on record as “comparable to Prolastin”; the “safety compared with Prolastin” value is recorded as “comparable to Prolastin”. Regarding “Aralast NP: sterile, lyophilized preparation of human alpha-1 antitrypsin protein derived from large pools of human plasma”, the specific activity in series [2] was 0.55 mg active alpha1-protease inhibitor/mg of total protein. Besides, in the series on alpha-1 anti-trypsin, the “augmenting blood and lung alpha-1 anti-trypsin levels compared with Prolastin” value was “comparable to Prolastin”; the “safety compared with Prolastin” value is recorded as “comparable to Prolastin”.
